Measurements taken from patent US20260250421A1 (BIOCYTOGEN PHARMACEUTICALS BEIJING, published 2026).
Where a chain is given by its changes, count along the chain named.

Assays:
[1] = molecular target: T1, TROP2 on NCI-H1975 and NUGC-4 tumor cells (UniProt P09758 27-323, limits assumed); assay: flow cytometry on NUGC-4 cells (only TROP2 expression), anti-hIgG-Fc Alexa Fluor 647 secondary antibody, MFI [B]
T1 construct: whole, on cells; species of the lines is not worded there; also called TROP2 on cells
T1 sequence (looked up): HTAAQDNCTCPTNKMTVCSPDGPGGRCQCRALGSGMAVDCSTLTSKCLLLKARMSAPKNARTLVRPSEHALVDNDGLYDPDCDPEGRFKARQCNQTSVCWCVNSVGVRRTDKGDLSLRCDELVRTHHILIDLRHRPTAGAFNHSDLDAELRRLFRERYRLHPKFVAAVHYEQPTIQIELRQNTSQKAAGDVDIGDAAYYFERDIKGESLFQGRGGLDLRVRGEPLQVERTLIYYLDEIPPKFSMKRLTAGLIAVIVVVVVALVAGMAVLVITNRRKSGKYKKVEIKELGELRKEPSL
Protocol: This experiment was performed to test the binding activities of the anti-PTK7/TROP2 bispecific antibodies to different tumor cell lines. NCI-H1975 cells or NUGC-4 cells were transferred to a 96-well plate at a density of 5×10⁴ cells/well respectively. The sample antibody was added to the 96-well plate, and incubated at 4° C. for 30 min.

[2] = molecular target: T2, His-tagged human TROP2 protein (human, UniProt P09758 27-274); assay: SPR Biacore 8K, Ab on Protein A chip
T2 construct: Bought protein; also called hTROP2-His; ACRO Biosystems Cat# TR2-H5223; not shown: His tag
T2 sequence (looked up): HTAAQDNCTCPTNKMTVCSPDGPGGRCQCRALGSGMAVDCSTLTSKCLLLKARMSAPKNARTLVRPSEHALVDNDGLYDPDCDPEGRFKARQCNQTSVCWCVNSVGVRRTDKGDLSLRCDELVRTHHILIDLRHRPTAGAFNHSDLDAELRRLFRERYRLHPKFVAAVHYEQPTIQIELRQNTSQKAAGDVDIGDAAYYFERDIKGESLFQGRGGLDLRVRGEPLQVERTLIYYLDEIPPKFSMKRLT
Protocol: (§1) The affinity of the anti-PTK7/TROP2 bispecific antibodies to His-tagged human TROP2 protein (hTROP2-His, ACRO Biosystems Inc., Cat #: TR2-H5223), His-tagged […] monkey TROP2 protein (cTROP2-His, ACRO Biosystems Inc., Cat #: Cat: TR2-R52H3), His-tagged dog TROP2 protein (dTROP2-His, ACRO Biosystems Inc., Cat #: TR2-C52H4), hPTK7-His, cPTK7-His and dPTK7-His were measured by surface plasmon resonance (SPR) using Biacore™ (Biacore, INC, Piscataway N.J.) 8K biosensor equipped with pre-immobilized Protein A sensor chips.

[3] = molecular target: T3, His-tagged dog PTK7 protein (dog, UniProt Q13308 31-703 (human entry)); assay: SPR Biacore 8K, Ab on Protein A chip
T3 construct: also called dPTK7-His
T3 chain: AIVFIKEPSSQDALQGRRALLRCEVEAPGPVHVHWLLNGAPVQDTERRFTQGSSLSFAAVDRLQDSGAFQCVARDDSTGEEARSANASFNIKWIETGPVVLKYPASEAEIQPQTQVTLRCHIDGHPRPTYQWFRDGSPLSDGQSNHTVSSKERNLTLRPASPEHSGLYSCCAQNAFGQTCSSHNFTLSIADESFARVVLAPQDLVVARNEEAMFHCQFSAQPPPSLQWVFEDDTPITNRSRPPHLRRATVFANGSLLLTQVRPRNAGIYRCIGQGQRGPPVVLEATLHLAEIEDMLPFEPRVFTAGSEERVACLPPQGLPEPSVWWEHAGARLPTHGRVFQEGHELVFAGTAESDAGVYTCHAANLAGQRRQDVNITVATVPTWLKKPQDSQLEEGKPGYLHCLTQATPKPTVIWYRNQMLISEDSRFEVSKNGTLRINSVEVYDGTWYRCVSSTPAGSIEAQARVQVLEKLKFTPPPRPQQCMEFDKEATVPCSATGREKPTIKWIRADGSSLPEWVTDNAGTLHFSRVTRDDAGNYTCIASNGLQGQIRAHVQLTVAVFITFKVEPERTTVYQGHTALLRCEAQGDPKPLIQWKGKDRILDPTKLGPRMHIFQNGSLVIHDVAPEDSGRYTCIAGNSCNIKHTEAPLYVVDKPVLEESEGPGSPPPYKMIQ
Protocol: as §1

[4] = molecular target: T4, His-tagged monkey TROP2 protein (cynomolgus monkey; Rhesus …, UniProt A0A5F8AGB8 27-274); assay: SPR Biacore 8K, Ab on Protein A chip
T4 construct: also called cTROP2-His; ACRO Biosystems Cat# TR2-R52H3
T4 sequence: T2 sequence (looked up) with M36V, S67N, I204V

- EC50 (read off the curve) [1]: ~0.6 µg/mL
- Kd [2]: 3.03 nM
- koff [2]: 0.00107 s⁻¹
- kon [2]: 353000 M⁻¹ s⁻¹
- Kd [3]: 38.9 nM
- koff [3]: 0.00449 s⁻¹
- kon [3]: 115000 M⁻¹ s⁻¹
- Kd [4]: 3.16 nM
- koff [4]: 0.00104 s⁻¹
- kon [4]: 329000 M⁻¹ s⁻¹
B1: 3C4-18E9 (bispecific antibody, human IgG1, V domains shown)
VH 1: QVQLEQSRAEVKKPGESLRISCKGSGYSFTSYWISWVRQMPGKGLEWMGRIDPSDSYTNYNPSFQGHVTISADKSISTAYLQWSSLKASDTAMYYCARRDGSYFDFDYWGQGTLVTVSS
VH 2: QLQLQQSGPGLLKPSETLSLTCTVSGGSISSSYYFWGWIRQPPGKGLEWIGAIYYIGNTHYNPSLKSRVTISIDTSKNQFSLNLNSVTAADTAIYYCARYEDTWNWFDPWGQGTLVTVSS
VL: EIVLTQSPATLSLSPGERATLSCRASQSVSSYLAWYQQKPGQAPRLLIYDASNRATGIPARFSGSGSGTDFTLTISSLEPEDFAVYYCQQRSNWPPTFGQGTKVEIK
notes: which arm carries the knob is stated only for 3C4-6F7; also called anti-PTK7/TROP2 bispecific antibody 3C4-18E9
